Reference: patent US20240376149A1, “Novel Modulators of GABABR1a” (VIB VZW, priority 2021, published 2024)
One block for each binder: values may come before it. Where no end group is shown, it is not given here.

How the values were obtained:
[1] = target: T1, Sushi domain 1 of the human GABA B1a receptor (human, UniProt Q9UBS5 26-96); test: fluorescence polarization, SD1 titrated against 11.11 µM FITC-9mer; concentration is that of SD1
T1 construct: Purified recombinant protein from E. coli; also called SD1; GABABR1a-SD1

[2] = target: T1, Sushi domain 1 of the human GABA B1a …; test: fluorescence polarization, SD1 titrated against 3.7 µM FITC-9mer; concentration is that of SD1
[3] = target: T1, Sushi domain 1 of the human GABA B1a …; test: fluorescence polarization, SD1 titrated against 0.05 µM FITC-9mer; concentration is that of SD1
[4] = target: T1, Sushi domain 1 of the human GABA B1a …; test: fluorescence polarization, SD1 titrated against 0.14 µM FITC-9mer; concentration is that of SD1
[5] = target: T1, Sushi domain 1 of the human GABA B1a …; test: fluorescence polarization, SD1 titrated against 0.41 µM FITC-9mer; concentration is that of SD1
[6] = target: T1, Sushi domain 1 of the human GABA B1a …; test: fluorescence polarization, SD1 titrated against 1.2 µM FITC-9mer; concentration is that of SD1
[7] = target: GABABR1b expressed on cells (UniProt Q9UBS5-2 30-474, limits assumed); test: cell-based binding assay, flow cytometry
[8] = target: T1, Sushi domain 1 of the human GABA B1a …; test: FP competition vs FITC-9mer on purified SD1; 9-mer
Method: (§1) To screen for GABABR1a binders using unlabelled test compounds, the assay was turned into a competition assay using FITC-9mer. […] To validate this inhibitor assay, the IC50 values were determined of the 17-mer, 9-mer, 5-mer as well as those from 3 negative controls: 10-mer, scrambled 17-mer and a scrambled 9-mer (FIG. 2).
To determine if the peptides of this application were able to disrupt the SD1-9-mer complex, each peptide (in single point or dose-response curve) tested was incubate with SD1 protein for 1 h at RT. After this initially incubation, FITC-9mer was added to the previous mix and incubated during 2 h at RT. The signal intensity was measure in an appropriate plate reader using the following settings: Number of flashes per well: 200; Excitation: F482-16; Dichroic filter: FLP 504; Emission A F530-40; Gain A: 738, Gain B: 736. The assay was conducted in a 384-well plate.

[9] = target: T1, Sushi domain 1 of the human GABA B1a …; test: ITC, peptide titrated into purified SD1
Method: First, we wondered whether the wild-type sAPP 9-mer peptide would be the optimal sequence in terms of SD1 binding or whether sequence variants of the sAPP 9-mer would have improved binding to the GABABR1a-SD1. Therefore a panel of single and double sAPP 9-mer mutants was generated. An alanine scan was performed for the residues on position 1 to position 7. Based on an ITC assay, these single mutant peptides bound the SD1 with the same or slightly higher Kd (Table 1). Also the double mutants VIB_P04, VIB_P05 and VIB_P19 bound with a similar Kd to SD1 compared to the wild-type 9-mer. We have also tested the effect of the D-isomer of the amino residues on position 1 to 4, in single or multiple combinations. None of the mutations had strong effects on the measured Kd (Table 1). We therefore conclude that the wild-type sAPP 9-mer is already optimized but that many variants bind as good to SD1 and thus will modulate GABABR1a in a similar manner.
The Sushi-1 protein was dialysed overnight to PBS buffer and diluted to 30 μM in the same buffer. The peptides were resuspended in PBS at a stock concentration of 3 mM and diluted further in the same buffer to 300 μM. ITC experiments were performed on a Microcal ITC200 device. Titrations comprised 26×1.5 μL injections of peptide into protein, with 90 s intervals. An initial injection of ligand (0.5 μL) was made and discarded during data analysis. The data were fitted to a single binding site model using the Microcal LLC ITC₂₀₀. Original software provided by the manufacturer.

[10] = target: T1, Sushi domain 1 of the human GABA B1a …; test: FP competition vs FITC-9mer on purified SD1; 17-mer
Method: Intrigued by the surprising results of the 5-mer, it was decided to set up a medium- to high-throughput screen to optimize the 5-mer sequence. Several assays were tested to find a reproducible, robust and cost-effective assay that is also suitable for high-throughput screening. A fluorescence polarization (FP) assay was selected. FP measurements are well-known for receptor binding assays. The assay is based on the rotational movement of fluorescently labelled molecules in solution. […] The FP assay was optimized using the FITC labelled sAPP 9-mer (FIG. 1).
as §1

T1 sequence (Q9UBS5 26-96 limits assumed): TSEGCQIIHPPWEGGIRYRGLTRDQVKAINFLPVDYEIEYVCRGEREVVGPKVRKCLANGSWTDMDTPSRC
GABABR1b expressed on cells, sequence (Q9UBS5 other isoform, or with tags, fused parts or gaps limits assumed): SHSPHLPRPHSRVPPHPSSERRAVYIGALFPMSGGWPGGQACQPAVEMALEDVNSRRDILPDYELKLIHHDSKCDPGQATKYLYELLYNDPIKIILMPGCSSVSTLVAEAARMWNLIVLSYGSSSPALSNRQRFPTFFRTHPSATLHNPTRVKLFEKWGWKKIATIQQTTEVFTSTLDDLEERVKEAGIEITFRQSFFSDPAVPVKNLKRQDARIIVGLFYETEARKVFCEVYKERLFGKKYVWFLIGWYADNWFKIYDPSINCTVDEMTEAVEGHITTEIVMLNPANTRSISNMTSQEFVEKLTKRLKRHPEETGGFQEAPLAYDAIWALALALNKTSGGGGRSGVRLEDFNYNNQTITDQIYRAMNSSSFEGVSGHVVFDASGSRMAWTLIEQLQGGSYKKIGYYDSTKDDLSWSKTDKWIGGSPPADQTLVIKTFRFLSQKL

EC50 (read off the curve) [1]: ~8 µM
EC50 (read off the curve) [2]: ~4 µM
EC50 (read off the curve) [3]: ~0.8 µM
EC50 (read off the curve) [4]: ~1 µM
EC50 (read off the curve) [5]: ~1 µM
EC50 (read off the curve) [6]: ~2 µM
Binder: DDSDVWWGG (also: FITC label, site not given here, also called FITC-9mer) [FITC labelled sAPP 9-mer]

binding result [7]: no binding
Binder: DDSDVWWGG (also: biotin tag, site not given here, also called biotin-9mer; biotion-9mer) [9-mer tagged with Biotin]

IC50 [8]: 11 µM
Kd [9]: 3 µM
Binder: DDSDVWWGG (Unlabelled) [wild-type sAPP 9-mer]

IC50 [10]: 1.7 µM
Binder: DDSDVWWGGADTDYADG [wild-type sAPP 17-mer]
